From patent publication US20220089698A1 (published 2022)

How the values were obtained:
HIV gp120 Bal = HIV gp120 Bal (HIV); experiment: single-point ELISA; also: test concentration or dose not given here
HIV gp120 CAAN = HIV gp120 CAAN (HIV); experiment: single-point ELISA; also: test concentration or dose not given here

| Binder | ELISA (A450) (HIV gp120 Bal) | ELISA (A450) (HIV gp120 CAAN) |
| --- | --- | --- |
| 1.15.1-1 (antibody, human IgG1, kappa) heavy: QVQLLQSGAAVTKPGASVRVSCEASGYNIRDYFIHWWRQAPGQGLQWVGWINPKWGQPNNPRQFQGRVSLTRHASWDFDTFSFYMDLKALRSDDTAVYFCARQRSDYWDFDVWGSGTQVTVSSASTKGPSVFPLAPSSKSTSGGTAALGCLVKDYFPEPVTVSWNSGALTSGVHTFPAVLQSSGLYSLSSVVTVPSSSLGTQTYICNVNHKPSNTKVDKKVEPKSCDKTHTCPPCPAPELLAGPDVFLFPPKPKDTLMISRTPEVTCVVVDVSHEDPEVKFNWYVDGVEVHNAKTKPREEQYNSTYRVVSVLTVLHQDWLNGKEYKCKVSNKALPLPEEKTISKAKGQPREPQVYTLPPSREEMTKNQVSLTCLVKGFYPSDIAVEWESNGQPENNYKTTPPVLDSDGSFFLYSKLTVDKSRWQQGNVFSCSVLHEALHSHYTQKSLSLSPGK light: DIQMTQSPSSLSASVGDTVTITCQANGYLNWYQQRRGKAPKLLIYDGSKLERGVPSRFSGRRWGQEYNLTINNLQPEDIATYFCQVYEFVVPGTRLDLKRTVAAPSVFIFPPSDEQLKSGTASVVCLLNNFYPREAKVQWKVDNALQSGNSQESVTEQDSKDSTYSLSSTLTLSKADYEKHKVYACEVTHQGLSSPVTKSFNRGEC | 0.87 | 1.38 |
| 1.20.1-1 (antibody, human IgG1, kappa) heavy: QVQLLQSGAAVTKPGASVRVSCEASGYNIRDYFIHWWRQAPGQGLQWVGWINPKTGQPNNPRQFQGRVTMTRHASWDFDTFSFYMDLKALRSDDTAVYFCARQRSDYWDFDVWGSGTQVTVSSASTKGPSVFPLAPSSKSTSGGTAALGCLVKDYFPEPVTVSWNSGALTSGVHTFPAVLQSSGLYSLSSVVTVPSSSLGTQTYICNVNHKPSNTKVDKKVEPKSCDKTHTCPPCPAPELLAGPDVFLFPPKPKDTLMISRTPEVTCVVVDVSHEDPEVKFNWYVDGVEVHNAKTKPREEQYNSTYRVVSVLTVLHQDWLNGKEYKCKVSNKALPLPEEKTISKAKGQPREPQVYTLPPSREEMTKNQVSLTCLVKGFYPSDIAVEWESNGQPENNYKTTPPVLDSDGSFFLYSKLTVDKSRWQQGNVFSCSVLHEALHSHYTQKSLSLSPGK light: DIQMTQSPSSLSASVGDTVTITCQANGYLNWYQQRRGKAPKLLIYDGSKLERGVPSRFSGRRWGQEYNLTINNLQPEDIATYFCQVYEFVVPGTRLDLKRTVAAPSVFIFPPSDEQLKSGTASVVCLLNNFYPREAKVQWKVDNALQSGNSQESVTEQDSKDSTYSLSSTLTLSKADYEKHKVYACEVTHQGLSSPVTKSFNRGEC | 0.89 | 0.8 |
| 1.19.1-1 (antibody, human IgG1, kappa) heavy: QVQLLQSGAAVTKPGASVRVSCEASGYNIRDYFIHWWRQAPGQGLQWVGWINPKTGQPNNPRQFQGRVTLTRHASWDFDTFSFYMDLKALRSDDTAVYFCARQRSDYWDFDVWGSGTQVTVSSASTKGPSVFPLAPSSKSTSGGTAALGCLVKDYFPEPVTVSWNSGALTSGVHTFPAVLQSSGLYSLSSVVTVPSSSLGTQTYICNVNHKPSNTKVDKKVEPKSCDKTHTCPPCPAPELLAGPDVFLFPPKPKDTLMISRTPEVTCVVVDVSHEDPEVKFNWYVDGVEVHNAKTKPREEQYNSTYRVVSVLTVLHQDWLNGKEYKCKVSNKALPLPEEKTISKAKGQPREPQVYTLPPSREEMTKNQVSLTCLVKGFYPSDIAVEWESNGQPENNYKTTPPVLDSDGSFFLYSKLTVDKSRWQQGNVFSCSVLHEALHSHYTQKSLSLSPGK light: DIQMTQSPSSLSASVGDTVTITCQANGYLNWYQQRRGKAPKLLIYDGSKLERGVPSRFSGRRWGQEYNLTINNLQPEDIATYFCQVYEFVVPGTRLDLKRTVAAPSVFIFPPSDEQLKSGTASVVCLLNNFYPREAKVQWKVDNALQSGNSQESVTEQDSKDSTYSLSSTLTLSKADYEKHKVYACEVTHQGLSSPVTKSFNRGEC | 0.85 | 0.93 |
| 1.18.1-1 (antibody, human IgG1, kappa) heavy: QVQLLQSGAAVTKPGASVRVSCEASGYNIRDYFIHWWRQAPGQGLQWVGWINPKHGQPNNPRQFQGRVSLTRHASWDFDTFSFYMDLKALRSDDTAVYFCARQRSDYWDFDVWGSGTQVTVSSASTKGPSVFPLAPSSKSTSGGTAALGCLVKDYFPEPVTVSWNSGALTSGVHTFPAVLQSSGLYSLSSVVTVPSSSLGTQTYICNVNHKPSNTKVDKKVEPKSCDKTHTCPPCPAPELLAGPDVFLFPPKPKDTLMISRTPEVTCVVVDVSHEDPEVKFNWYVDGVEVHNAKTKPREEQYNSTYRVVSVLTVLHQDWLNGKEYKCKVSNKALPLPEEKTISKAKGQPREPQVYTLPPSREEMTKNQVSLTCLVKGFYPSDIAVEWESNGQPENNYKTTPPVLDSDGSFFLYSKLTVDKSRWQQGNVFSCSVLHEALHSHYTQKSLSLSPGK light: DIQMTQSPSSLSASVGDTVTITCQANGYLNWYQQRRGKAPKLLIYDGSKLERGVPSRFSGRRWGQEYNLTINNLQPEDIATYFCQVYEFVVPGTRLDLKRTVAAPSVFIFPPSDEQLKSGTASVVCLLNNFYPREAKVQWKVDNALQSGNSQESVTEQDSKDSTYSLSSTLTLSKADYEKHKVYACEVTHQGLSSPVTKSFNRGEC | 0.97 | 1.18 |
| 1.17.1-1 (antibody, human IgG1, kappa) heavy: QVQLLQSGAAVTKPGASVRVSCEASGYNIRDYFIHWWRQAPGQGLQWVGWINPKAGQPNNPRQFQGRVSLTRHASWDFDTFSFYMDLKALRSDDTAVYFCARQRSDYWDFDVWGSGTQVTVSSASTKGPSVFPLAPSSKSTSGGTAALGCLVKDYFPEPVTVSWNSGALTSGVHTFPAVLQSSGLYSLSSVVTVPSSSLGTQTYICNVNHKPSNTKVDKKVEPKSCDKTHTCPPCPAPELLAGPDVFLFPPKPKDTLMISRTPEVTCVVVDVSHEDPEVKFNWYVDGVEVHNAKTKPREEQYNSTYRVVSVLTVLHQDWLNGKEYKCKVSNKALPLPEEKTISKAKGQPREPQVYTLPPSREEMTKNQVSLTCLVKGFYPSDIAVEWESNGQPENNYKTTPPVLDSDGSFFLYSKLTVDKSRWQQGNVFSCSVLHEALHSHYTQKSLSLSPGK light: DIQMTQSPSSLSASVGDTVTITCQANGYLNWYQQRRGKAPKLLIYDGSKLERGVPSRFSGRRWGQEYNLTINNLQPEDIATYFCQVYEFVVPGTRLDLKRTVAAPSVFIFPPSDEQLKSGTASVVCLLNNFYPREAKVQWKVDNALQSGNSQESVTEQDSKDSTYSLSSTLTLSKADYEKHKVYACEVTHQGLSSPVTKSFNRGEC | 0.84 | 0.7 |
| 1.21.1-1 (antibody, human IgG1, kappa) heavy: QVQLLQSGAAVTKPGASVRVSCEASGYNIRDYFIHWWRQAPGQGLQWVGWINPKTGQPNNPRQFQGRVSLTRDASWDFDTFSFYMDLKALRSDDTAVYFCARQRSDYWDFDVWGSGTQVTVSSASTKGPSVFPLAPSSKSTSGGTAALGCLVKDYFPEPVTVSWNSGALTSGVHTFPAVLQSSGLYSLSSVVTVPSSSLGTQTYICNVNHKPSNTKVDKKVEPKSCDKTHTCPPCPAPELLAGPDVFLFPPKPKDTLMISRTPEVTCVVVDVSHEDPEVKFNWYVDGVEVHNAKTKPREEQYNSTYRVVSVLTVLHQDWLNGKEYKCKVSNKALPLPEEKTISKAKGQPREPQVYTLPPSREEMTKNQVSLTCLVKGFYPSDIAVEWESNGQPENNYKTTPPVLDSDGSFFLYSKLTVDKSRWQQGNVFSCSVLHEALHSHYTQKSLSLSPGK light: DIQMTQSPSSLSASVGDTVTITCQANGYLNWYQQRRGKAPKLLIYDGSKLERGVPSRFSGRRWGQEYNLTINNLQPEDIATYFCQVYEFVVPGTRLDLKRTVAAPSVFIFPPSDEQLKSGTASVVCLLNNFYPREAKVQWKVDNALQSGNSQESVTEQDSKDSTYSLSSTLTLSKADYEKHKVYACEVTHQGLSSPVTKSFNRGEC | 0.87 | 0.77 |
| 1v2-1 (antibody, human IgG1, kappa) heavy: QVQLLQSGAAVTKPGASVRVSCEASGYNIRDYFIHWWRQAPGQGLQWVGWINPKTGQPNNPRQFQGRVSLTRHASWDFDTYSFYMDLKALRSDDTAVYFCARQRSDYWDFDVWGSGTQVTVSSASTKGPSVFPLAPSSKSTSGGTAALGCLVKDYFPEPVTVSWNSGALTSGVHTFPAVLQSSGLYSLSSVVTVPSSSLGTQTYICNVNHKPSNTKVDKKVEPKSCDKTHTCPPCPAPELLAGPDVFLFPPKPKDTLMISRTPEVTCVVVDVSHEDPEVKFNWYVDGVEVHNAKTKPREEQYNSTYRVVSVLTVLHQDWLNGKEYKCKVSNKALPLPEEKTISKAKGQPREPQVYTLPPSREEMTKNQVSLTCLVKGFYPSDIAVEWESNGQPENNYKTTPPVLDSDGSFFLYSKLTVDKSRWQQGNVFSCSVLHEALHSHYTQKSLSLSPGK light: DIQMTQSPSSLSASVGDTVTITCQANGYLNWYQQRRGKAPKLLIYDGSKLERGVPSRFSGRRWGQEYNLTINNLQPEDIATYFCQVYEFVVPGTRLDLKRTVAAPSVFIFPPSDEQLKSGTASVVCLLNNFYPREAKVQWKVDNALQSGNSQESVTEQDSKDSTYSLSSTLTLSKADYEKHKVYACEVTHQGLSSPVTKSFNRGEC | 1.03 | 1 |
| 1.22.1-1 (antibody, human IgG1, kappa) heavy: QVQLLQSGAAVTKPGASVRVSCEASGYNIRDYFIHWWRQAPGQGLQWVGWINPKTGQPNNPRQFQGRVSLTRHASTFSFYMDLKALRSDDTAVYFCARQRSDYWDFDVWGSGTQVTVSSASTKGPSVFPLAPSSKSTSGGTAALGCLVKDYFPEPVTVSWNSGALTSGVHTFPAVLQSSGLYSLSSVVTVPSSSLGTQTYICNVNHKPSNTKVDKKVEPKSCDKTHTCPPCPAPELLAGPDVFLFPPKPKDTLMISRTPEVTCVVVDVSHEDPEVKFNWYVDGVEVHNAKTKPREEQYNSTYRVVSVLTVLHQDWLNGKEYKCKVSNKALPLPEEKTISKAKGQPREPQVYTLPPSREEMTKNQVSLTCLVKGFYPSDIAVEWESNGQPENNYKTTPPVLDSDGSFFLYSKLTVDKSRWQQGNVFSCSVLHEALHSHYTQKSLSLSPGK light: DIQMTQSPSSLSASVGDTVTITCQANGYLNWYQQRRGKAPKLLIYDGSKLERGVPSRFSGRRWGQEYNLTINNLQPEDIATYFCQVYEFVVPGTRLDLKRTVAAPSVFIFPPSDEQLKSGTASVVCLLNNFYPREAKVQWKVDNALQSGNSQESVTEQDSKDSTYSLSSTLTLSKADYEKHKVYACEVTHQGLSSPVTKSFNRGEC | 1.03 | 0.87 |
| 1.16.1-1 (antibody, human IgG1, kappa) heavy: QVQLLQSGAAVTKPGASVRVSCEASGYNIRDYFIHWWRQAPGQGLQWVGWINPKGGQPNNPRQFQGRVSLTRHASWDFDTFSFYMDLKALRSDDTAVYFCARQRSDYWDFDVWGSGTQVTVSSASTKGPSVFPLAPSSKSTSGGTAALGCLVKDYFPEPVTVSWNSGALTSGVHTFPAVLQSSGLYSLSSVVTVPSSSLGTQTYICNVNHKPSNTKVDKKVEPKSCDKTHTCPPCPAPELLAGPDVFLFPPKPKDTLMISRTPEVTCVVVDVSHEDPEVKFNWYVDGVEVHNAKTKPREEQYNSTYRVVSVLTVLHQDWLNGKEYKCKVSNKALPLPEEKTISKAKGQPREPQVYTLPPSREEMTKNQVSLTCLVKGFYPSDIAVEWESNGQPENNYKTTPPVLDSDGSFFLYSKLTVDKSRWQQGNVFSCSVLHEALHSHYTQKSLSLSPGK light: DIQMTQSPSSLSASVGDTVTITCQANGYLNWYQQRRGKAPKLLIYDGSKLERGVPSRFSGRRWGQEYNLTINNLQPEDIATYFCQVYEFVVPGTRLDLKRTVAAPSVFIFPPSDEQLKSGTASVVCLLNNFYPREAKVQWKVDNALQSGNSQESVTEQDSKDSTYSLSSTLTLSKADYEKHKVYACEVTHQGLSSPVTKSFNRGEC | 0.92 | 0.87 |
